{"source": "the Human Domainome abundance scans (Beltran et al. 2025)", "parents": {"B1": {"name": "Triacylglycerol hydrolase DDHD2, residues 389 to 447; numbered along this chain, O94830 (parent)", "chain": "TLEEDLKKLQLSEFFDIFEKEKVDKEALALCTDRDLQEIGIPLGPRKKILNYFSTRKNS"}}, "note": "± gives the uncertainty stated by the source."}
{"variants_of": "B1", "assay": "abundance fitness (aPCA) (normalised: wild type 0, dead -1); higher = more abundant; growth selection in yeast, the domain comes from the species named", "details": "Homo sapiens"}
{"variant": "D5I", "abundance fitness": "-0.144 ± 0.11"}
{"variant": "D5T", "abundance fitness": "0.15 ± 0.069"}
{"variant": "D5H", "abundance fitness": "0.004 ± 0.11"}
{"variant": "D5Y", "abundance fitness": "-0.614 ± 0.12"}
{"variant": "D5K", "abundance fitness": "-0.42 ± 0.085"}
{"variant": "D35K", "abundance fitness": "0.313 ± 0.081"}
{"variant": "D35A", "abundance fitness": "-0.309 ± 0.084"}
{"variant": "D35V", "abundance fitness": "-0.818 ± 0.087"}
{"variant": "E3I", "abundance fitness": "-0.325 ± 0.14"}
{"variant": "K20I", "abundance fitness": "-0.321 ± 0.14"}
{"variant": "K20N", "abundance fitness": "-0.142 ± 0.14"}
{"variant": "E26I", "abundance fitness": "-0.219 ± 0.16"}
{"variant": "E26W", "abundance fitness": "-0.086 ± 0.084"}
{"variant": "E26M", "abundance fitness": "-0.072 ± 0.11"}
{"variant": "R56V", "abundance fitness": "0.035 ± 0.064"}
{"variant": "R56T", "abundance fitness": "0.033 ± 0.081"}
{"variant": "R56H", "abundance fitness": "-0.207 ± 0.12"}
{"variant": "R56F", "abundance fitness": "-0.074 ± 0.11"}
{"variant": "R56G", "abundance fitness": "-0.105 ± 0.062"}
{"variant": "R56M", "abundance fitness": "0.095 ± 0.092"}
{"variant": "R56N", "abundance fitness": "-0.236 ± 0.15"}
{"variant": "R56Y", "abundance fitness": "0.019 ± 0.11"}
{"variant": "Q10M", "abundance fitness": "-0.1 ± 0.074"}
{"variant": "Q10E", "abundance fitness": "0.119 ± 0.061"}
{"variant": "Q10N", "abundance fitness": "0.011 ± 0.2"}
{"variant": "T32E", "abundance fitness": "0.056 ± 0.091"}
{"variant": "T32Q", "abundance fitness": "-0.251 ± 0.12"}
{"variant": "T32H", "abundance fitness": "-0.359 ± 0.14"}
{"variant": "T32S", "abundance fitness": "-0.053 ± 0.072"}
{"variant": "K57I", "abundance fitness": "-0.075 ± 0.14"}
{"variant": "K57W", "abundance fitness": "-0.525 ± 0.086"}
{"variant": "K7M", "abundance fitness": "-0.424 ± 0.18"}
{"variant": "K7N", "abundance fitness": "-0.153 ± 0.22"}
{"variant": "K7E", "abundance fitness": "-0.017 ± 0.14"}
{"variant": "P42G", "abundance fitness": "-0.587 ± 0.073"}
{"variant": "P42C", "abundance fitness": "-0.842 ± 0.17"}
{"variant": "P42M", "abundance fitness": "-0.649 ± 0.1"}
{"variant": "P42E", "abundance fitness": "-0.213 ± 0.072"}
{"variant": "P42H", "abundance fitness": "-1.06 ± 0.33"}
{"variant": "F15E", "abundance fitness": "-0.029 ± 0.08"}
{"variant": "F15H", "abundance fitness": "-0.084 ± 0.18"}
{"variant": "F15W", "abundance fitness": "-0.311 ± 0.098"}
{"variant": "F15G", "abundance fitness": "0.007 ± 0.071"}
{"variant": "L30T", "abundance fitness": "0.556 ± 0.081"}
{"variant": "L30H", "abundance fitness": "0.377 ± 0.11"}
{"variant": "L30I", "abundance fitness": "0.513 ± 0.1"}
{"variant": "K48C", "abundance fitness": "-0.408 ± 0.1"}
{"variant": "K48W", "abundance fitness": "-0.946 ± 0.13"}
{"variant": "K48M", "abundance fitness": "0.146 ± 0.11"}
{"variant": "K48S", "abundance fitness": "-0.075 ± 0.069"}
{"variant": "G44A", "abundance fitness": "0.35 ± 0.054"}
{"variant": "G44P", "abundance fitness": "-0.079 ± 0.064"}
{"variant": "G44W", "abundance fitness": "-0.275 ± 0.07"}
{"variant": "V23N", "abundance fitness": "-0.414 ± 0.19"}
{"variant": "V23K", "abundance fitness": "0.101 ± 0.11"}
{"variant": "V23I", "abundance fitness": "0.417 ± 0.097"}
{"variant": "V23Y", "abundance fitness": "0.451 ± 0.12"}
{"variant": "V23S", "abundance fitness": "-0.391 ± 0.083"}
{"variant": "K22I", "abundance fitness": "-0.479 ± 0.11"}
{"variant": "K22Y", "abundance fitness": "0.089 ± 0.1"}
{"variant": "F53I", "abundance fitness": "-0.085 ± 0.15"}
{"variant": "F53S", "abundance fitness": "-0.237 ± 0.088"}
{"variant": "F53T", "abundance fitness": "-0.247 ± 0.084"}
{"variant": "S59Y", "abundance fitness": "-0.109 ± 0.18"}
{"variant": "S59F", "abundance fitness": "0.03 ± 0.12"}
{"variant": "S59G", "abundance fitness": "-0.151 ± 0.11"}
{"variant": "K25M", "abundance fitness": "0.086 ± 0.096"}
{"variant": "K25P", "abundance fitness": "-0.048 ± 0.11"}
{"variant": "G40Y", "abundance fitness": "-1.2 ± 0.27"}
{"variant": "G40T", "abundance fitness": "-0.67 ± 0.1"}
{"variant": "G40F", "abundance fitness": "-0.865 ± 0.24"}
{"variant": "Q37H", "abundance fitness": "-0.229 ± 0.14"}
{"variant": "Q37R", "abundance fitness": "-0.302 ± 0.073"}
{"variant": "Q37F", "abundance fitness": "-0.01 ± 0.12"}
{"variant": "Q37S", "abundance fitness": "-0.178 ± 0.07"}
{"variant": "Q37N", "abundance fitness": "-0.305 ± 0.14"}
{"variant": "Q37Y", "abundance fitness": "-0.232 ± 0.13"}
{"variant": "Q37M", "abundance fitness": "-0.024 ± 0.087"}
{"variant": "A27P", "abundance fitness": "-0.355 ± 0.13"}
{"variant": "A27K", "abundance fitness": "0.67 ± 0.085"}
{"variant": "S54T", "abundance fitness": "-0.097 ± 0.078"}
{"variant": "S54L", "abundance fitness": "-0.306 ± 0.069"}
{"variant": "S54K", "abundance fitness": "-0.071 ± 0.11"}
{"variant": "E4F", "abundance fitness": "-0.264 ± 0.1"}
{"variant": "E4Q", "abundance fitness": "-0.103 ± 0.072"}
{"variant": "E4M", "abundance fitness": "-0.109 ± 0.071"}
{"variant": "E4A", "abundance fitness": "-0.286 ± 0.067"}
{"variant": "I39N", "abundance fitness": "-0.249 ± 0.18"}
{"variant": "L11H", "abundance fitness": "-0.83 ± 0.1"}
{"variant": "L11T", "abundance fitness": "-0.871 ± 0.093"}
{"variant": "L11E", "abundance fitness": "-0.856 ± 0.088"}
{"variant": "L28C", "abundance fitness": "-0.325 ± 0.1"}
{"variant": "L28M", "abundance fitness": "-0.067 ± 0.11"}
{"variant": "N58A", "abundance fitness": "-0.193 ± 0.097"}
{"variant": "F18K", "abundance fitness": "-0.081 ± 0.13"}
{"variant": "F18V", "abundance fitness": "-0.45 ± 0.083"}
{"variant": "A29N", "abundance fitness": "0.142 ± 0.099"}
{"variant": "A29F", "abundance fitness": "-0.066 ± 0.098"}
{"variant": "T1D", "abundance fitness": "0.014 ± 0.3"}
{"variant": "T1Q", "abundance fitness": "-0.506 ± 0.28"}
{"variant": "T1E", "abundance fitness": "-0.042 ± 0.17"}
{"variant": "R46M", "abundance fitness": "-0.431 ± 0.15"}
{"variant": "R46C", "abundance fitness": "-0.172 ± 0.08"}
{"variant": "R46D", "abundance fitness": "-0.242 ± 0.098"}
{"variant": "R46A", "abundance fitness": "0.45 ± 0.066"}
{"variant": "D24I", "abundance fitness": "-1.2 ± 0.37"}
{"variant": "D24Y", "abundance fitness": "-0.627 ± 0.2"}
{"variant": "D24C", "abundance fitness": "-0.087 ± 0.16"}
{"variant": "D24E", "abundance fitness": "-0.023 ± 0.12"}
{"variant": "F14N", "abundance fitness": "-0.193 ± 0.19"}
{"variant": "F14E", "abundance fitness": "-0.592 ± 0.11"}
{"variant": "F14G", "abundance fitness": "-0.775 ± 0.094"}
{"variant": "F14H", "abundance fitness": "-0.599 ± 0.2"}
{"variant": "L36M", "abundance fitness": "-0.164 ± 0.08"}
{"variant": "L36R", "abundance fitness": "-0.434 ± 0.072"}
{"variant": "L36P", "abundance fitness": "-0.473 ± 0.12"}
{"variant": "L36Y", "abundance fitness": "-0.765 ± 0.14"}
{"variant": "L36G", "abundance fitness": "-0.322 ± 0.066"}
{"variant": "L50K", "abundance fitness": "-0.218 ± 0.1"}
{"variant": "L50P", "abundance fitness": "-0.401 ± 0.11"}
{"variant": "L50I", "abundance fitness": "0.096 ± 0.11"}
{"variant": "L2Y", "abundance fitness": "-0.695 ± 0.13"}
{"variant": "L2P", "abundance fitness": "-0.748 ± 0.092"}
{"variant": "E13W", "abundance fitness": "-1.45 ± 0.27"}
{"variant": "E13R", "abundance fitness": "-0.408 ± 0.098"}
{"variant": "E13G", "abundance fitness": "-0.576 ± 0.1"}
{"variant": "E38D", "abundance fitness": "0.067 ± 0.077"}
{"variant": "E38Y", "abundance fitness": "-0.55 ± 0.11"}
{"variant": "C31K", "abundance fitness": "0.489 ± 0.094"}
{"variant": "C31Q", "abundance fitness": "-0.145 ± 0.13"}
{"variant": "S12H", "abundance fitness": "0.052 ± 0.083"}
{"variant": "S12T", "abundance fitness": "0.017 ± 0.059"}
{"variant": "S12Y", "abundance fitness": "-0.13 ± 0.088"}
{"variant": "S12G", "abundance fitness": "-0.099 ± 0.058"}
{"variant": "E21A", "abundance fitness": "0.599 ± 0.07"}
{"variant": "D16W", "abundance fitness": "-0.036 ± 0.058"}
{"variant": "D16E", "abundance fitness": "0.075 ± 0.059"}
{"variant": "D16C", "abundance fitness": "-0.084 ± 0.085"}
{"variant": "L6D", "abundance fitness": "0.082 ± 0.21"}
{"variant": "L6C", "abundance fitness": "-0.888 ± 0.27"}
{"variant": "Y52N", "abundance fitness": "0.151 ± 0.12"}
{"variant": "Y52E", "abundance fitness": "-0.075 ± 0.084"}
{"variant": "L43V", "abundance fitness": "0.48 ± 0.053"}
{"variant": "L43Q", "abundance fitness": "0.621 ± 0.081"}
{"variant": "T55G", "abundance fitness": "0.007 ± 0.054"}
{"variant": "T55C", "abundance fitness": "0.041 ± 0.11"}
{"variant": "T55Y", "abundance fitness": "-0.159 ± 0.1"}
{"variant": "T55V", "abundance fitness": "-0.152 ± 0.063"}
{"variant": "T55S", "abundance fitness": "-0.007 ± 0.067"}
{"variant": "P45F", "abundance fitness": "-0.144 ± 0.072"}
{"variant": "P45R", "abundance fitness": "-0.716 ± 0.09"}
{"variant": "P45W", "abundance fitness": "-1.26 ± 0.23"}
{"variant": "N51S", "abundance fitness": "0.14 ± 0.065"}
{"variant": "N51L", "abundance fitness": "-0.185 ± 0.07"}
{"variant": "K47F", "abundance fitness": "-0.772 ± 0.16"}
{"variant": "K47S", "abundance fitness": "0.225 ± 0.069"}
{"variant": "D33I", "abundance fitness": "-0.821 ± 0.16"}
{"variant": "D33Q", "abundance fitness": "-0.446 ± 0.11"}
{"variant": "D33W", "abundance fitness": "-0.51 ± 0.1"}
{"variant": "D33H", "abundance fitness": "-0.283 ± 0.12"}
{"variant": "E19F", "abundance fitness": "-0.082 ± 0.11"}
{"variant": "E19T", "abundance fitness": "0.023 ± 0.084"}
{"variant": "E19N", "abundance fitness": "-0.187 ± 0.12"}
{"variant": "E19Y", "abundance fitness": "-0.255 ± 0.12"}
{"variant": "E19G", "abundance fitness": "-0.359 ± 0.072"}
{"variant": "I41E", "abundance fitness": "-0.13 ± 0.086"}
{"variant": "I41R", "abundance fitness": "-0.289 ± 0.066"}
